Laboratory results: patent US6617117B1, “MAP kinases: polypeptides, polynucleotides and uses thereof” (Medical Research Council, priority 1996, dated 2003)

T1: SAPK3 (Rattus norvegicus, UniProt Q63538)
T1 sequence (Q63538 1-367): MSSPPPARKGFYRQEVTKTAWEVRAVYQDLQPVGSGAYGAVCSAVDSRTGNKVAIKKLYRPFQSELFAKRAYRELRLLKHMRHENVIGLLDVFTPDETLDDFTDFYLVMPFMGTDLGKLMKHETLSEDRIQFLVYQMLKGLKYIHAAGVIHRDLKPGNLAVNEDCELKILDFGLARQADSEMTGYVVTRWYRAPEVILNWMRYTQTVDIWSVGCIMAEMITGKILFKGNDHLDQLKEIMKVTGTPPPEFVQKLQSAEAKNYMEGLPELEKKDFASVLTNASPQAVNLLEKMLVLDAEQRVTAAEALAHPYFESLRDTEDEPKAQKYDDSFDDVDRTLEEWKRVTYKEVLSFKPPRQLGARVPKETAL

T2: SAPK4 (Homo sapiens, UniProt O15264)
T2 sequence (O15264 1-365): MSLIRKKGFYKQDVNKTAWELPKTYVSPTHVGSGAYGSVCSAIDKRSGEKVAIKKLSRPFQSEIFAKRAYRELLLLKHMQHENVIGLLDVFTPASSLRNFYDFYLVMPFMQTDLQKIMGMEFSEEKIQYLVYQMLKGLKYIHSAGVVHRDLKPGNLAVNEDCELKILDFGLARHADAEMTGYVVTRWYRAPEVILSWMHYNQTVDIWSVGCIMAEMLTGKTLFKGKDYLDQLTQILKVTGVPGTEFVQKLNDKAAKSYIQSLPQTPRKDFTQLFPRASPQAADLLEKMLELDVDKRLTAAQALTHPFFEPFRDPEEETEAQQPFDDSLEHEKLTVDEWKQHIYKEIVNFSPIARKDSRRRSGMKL


Assays:
SAPK3 [1] = target: T1, SAPK3; experiment: Activation of transfected myc epitope-tagged SAPK3 in KB and 293 cells, immunoprecipitation and MBP assay; assay type: cell-based, human; set-up: expressed in transfected cells; host or cells: human KB and 293 cells (vector pSG5); settings: FIG. 11A
Method: FIG. 11. SAPK3 is activated by cytokines and cellular stresses in KB and 293 cells. KB cells (A) or 293 cells (B) were transiently transfected with a DNA construct expressing a myc epitope-tagged SAPK3. Cells in DMEM were stimulated for 15 min with 0.5 M sorbitol (an osmotic shock), 20 ng/ml IL-1α, 100 ng/ml TNFa, 0.5 mM sodium arsenite (a chemical stress), 100 ng/ml of EGF or 300 ng/ml TPA, or for 30 min with […] anisomycin or 10 min with 100 ng/ml IGF-1. UV-C irradiation of cells was carried out at 60 J/m2 (KB cells) or 200 J/m2 (293 cells) and the cells then left for a further 30 min at 37° C. before lysis. The myc epitope-tagged SAPK3 was immunoprecipitated from cell lysates using the 9E10 monoclonal antibody and assayed with MBP as substrate. […] After UV-C irradiation, SAPK3 activity in the extracts was 0.18 U/mg (KB cells) and 0.1 U/mg (293 cells).
Cell culture and transient transfections. 293, KB and COS-7 cells were cultured in Dulbecco's modified Eagles' Medium (DMEM) supplemented with 10% foetal calf serum, at 37° C., in an atmosphere of 5% CO2. Transfections of 293 cells were carried out using the calcium-phosphate method. […]

SAPK3 [2] = target: T1, SAPK3; experiment: Co-transfection of SAPK3 with SKK3 into COS cells (FIG. 14); assay type: cell-based; set-up: expressed in transfected cells; host or cells: COS-1 cells (vector pSG5), alone or with human SKK3 or MEK kinase
Method: FIG. 14. SKK3 activates SAPK3 in transfected cells. COS-1 cells were transiently transfected with DNA expressing SAPK3 or co-transfected with either SKK3 or MEK kinase (MEKK). Cells were stimulated in DMEM for 15 min or with 0.5 M sorbitol. After stimulation and lysis, SAPK3 was immunoprecipitated from the cell lysates using an anti-SAPK3 antibody raised against the C-terminal 16 residues of SAPK3 (see Methods) and activity measured using MBP as the substrate.
Cell culture and transient transfections. 293, KB and COS-7 cells were cultured in Dulbecco's modified Eagles' Medium (DMEM) supplemented with 10% foetal calf serum, at 37° C., in an atmosphere of 5% CO2. Transfections of 293 cells were carried out using the calcium-phosphate method. Cells were split to a density of 2×106 per 10 cm dish, and after 12 h at 37° C., 10 μg of plasmid DNA in 0.45 ml of sterile water was added to 50 μl of sterile CaCl2, and then 0.5 ml of sterile buffer composed of 50 mM N,N-bis[2-hydroxyethyl]-2-aminoethanesulphonic acid/HCl pH 6.96, 0.28 M NaCl and 1.5 mM Na2HPO4 was added. The resulting mixture was vortexed for 1 min, allowed to stand at room temperature for 20 min, and then added dropwise to a 10 cm dish of 293 cells. The cells were placed in an atmosphere of 3% CO2 for 16 h at 37° C., then the medium was aspirated and replaced with new DMEM containing 10% foetal calf serum. […]

SAPK4 = target: T2, SAPK4; experiment: Co-transfection of SAPK4 with SKK3 into COS cells; assay type: cell-based; set-up: expressed in transfected cells; host or cells: COS1 cells, co-transfected with human SKK3; settings: n=3
Method: For bacterial expression, the open reading frames of human cDNA clones hSAPK2B2, hSAPK32 and hSAPK412 were amplified by PCR and subcloned as EcoRI fragments into expression vector pGEX4T-1 (Pharmacia), followed by transformation into E. coli strain BL21(DE3). The transformed bacteria were grown to an absorbance of 0.6 at 600 nm and induced with 0.4 mM isopropyl-1-thio-β-galactopyranoside (IPTG). […] For expression of c-myc epitope-tagged SAPK4, PCR was used to introduce the nucleotide sequence encoding the amino acid sequence […] (SEQ. ID. NO: 4) at the carboxy-terminus of SAPK4, followed by a stop codon. The resulting EcoRI/NotI fragment was subcloned into the mammalian expression vector pcDNA3.1 (Invitrogen). […] PCR fragments were verified by DNA sequencing. Transfections into COS1 cells were done as described in Example 4 and Cuenda et al, 1997.
We have shown previously that SKK3 accounts for 95% and SKK2 for 5% of the SAPK2a activator detected after Mono S chromatography of lysates from KB cells that have been stressed in several ways or stimulated with IL1 (Cuenda et al, 1996; Meier et al, 1996). […] SKK3 was also the only activator of SAPK4 after subjecting KB cells to osmotic stress using sorbitol (data not shown). Further evidence that SKK3 can activate SAPK4 in vivo was obtained by co-transfection into COS cells. […]

| Molecule | Activation of transfected SAPK3 (in words) (SAPK3 [1]) | Elevation of SAPK3 activity by coexpression (SAPK3 [2]) [fold] | Greater activation of transfected SAPK3 by osmotic shock where cotransfected (SAPK3 [2]; osmotic shock) [fold] | Elevation of SAPK4 activity by co-expression (SAPK4) [fold] |
| --- | --- | --- | --- | --- |
| EGF: growth factor stimulus from Boehringer (protein, UniProt P01133 23-1207, looked up, Pro-epidermal growth factor, growth factor stimulus from Boehringer) Pro-epidermal growth factor: PQHWSCPEGTLAGNGNSTCVGPAPFLIFSHGNSIFRIDTEGTNYEQLVVDAGVSVIMDFHYNEKRIYWVDLERQLLQRVFLNGSRQERVCNIEKNVSGMAINWINEEVIWSNQQEGIITVTDMKGNNSHILLSALKYPANVAVDPVERFIFWSSEVAGSLYRADLDGVGVKALLETSEKITAVSLDVLDKRLFWIQYNREGSNSLICSCDYDGGSVHISKHPTQHNLFAMSLFGDRIFYSTWKMKTIWIANKHTGKDMVRINLHSSFVPLGELKVVHPLAQPKAEDDTWEPEQKLCKLRKGNCSSTVCGQDLQSHLCMCAEGYALSRDRKYCEDVNECAFWNHGCTLGCKNTPGSYYCTCPVGFVLLPDGKRCHQLVSCPRNVSECSHDCVLTSEGPLCFCPEGSVLERDGKTCSGCSSPDNGGCSQLCVPLSPVSWECDCFPGYDLQLDEKSCAASGPQPFLLFANSQDIRHMHFDGTDYGTLLSQQMGMVYALDHDPVENKIYFAHTALKWIERANMDGSQRERLIEEGVDVPEGLAVDWIGRRFYWTDRGKSLIGRSDLNGKRSKIITKENISQPRGIAVHPMAKRLFWTDTGINPRIESSSLQGLGRLVIASSDLIWPSGITIDFLTDKLYWCDAKQSVIEMANLDGSKRRRLTQNDVGHPFAVAVFEDYVWFSDWAMPSVMRVNKRTGKDRVRLQGSMLKPSSLVVVHPLAKPGADPCLYQNGGCEHICKKRLGTAWCSCREGFMKASDGKTCLALDGHQLLAGGEVDLKNQVTPLDILSKTRVSEDNITESQHMLVAEIMVSDQDDCAPVGCSMYARCISEGEDATCQCLKGFAGDGKLCSDIDECEMGVPVCPPASSKCINTEGGYVCRCSEGYQGDGIHCLDIDECQLGEHSCGENASCTNTEGGYTCMCAGRLSEPGLICPDSTPPPHLREDDHHYSVRNSDSECPLSHDGYCLHDGVCMYIEALDKYACNCVVGYIGERCQYRDLKWWELRHAGHGQQQKVIVVAVCVVVLVMLLLLSLWGAHYYRTQKLLSKNPKNPYEESSRDVRSRRPADTEDGMSSCPQPWFVVIKEHQDLKNGGQPVAGEDGQAADGSMQPTSWRQEPQLCGMGTEQGCWIPVSSDKGSCPQVMERSFHMPSYGTQTLEGGVEKPHSLLSANPLWQQRALDPPHQMELTQ | more weakly | – | – | – |
| SKK3: SAP kinase kinase 3, upstream activator of SAPK2a, SAPK2b, SAPK3 and SAPK4 (protein) MSQSKGKKRNPGLKIPKEAFEQPQTSSTPPRDLDSKACISIGNQNFEVKADDLEPIMELGRGAYGVVEKMRHVPSGQIMAVKRIRATVNSQEQKRLLMDLDISMRTVDCPFTVTFYGALFREGDVWICMELMDTSLDKFYKQVIDKGQTIPEDILGKIAVSIVKALEHLHSKLSVIHRDVKPSNVLINALGQVKMCDFGISGYLVDSVAKTIDAGCKPYMAPERINPELNQKGYSVKSDIWSLGITMIELAILRFPYDSWGTPFQQLKQVVEEPSPQLPADKFSAEFVDFTSQCLKKNSKERPTYPELMQHPFFTLHESKGTDVASFVKLILGD | – | 10 | 30 | 12.5±0.63 |
